This is an account of results in PMC2940854, “Crystal Structure of the RNA Recognition Motif of Yeast Translation Initiation Factor eIF3b Reveals Differences to Human eIF3b” (PLoS ONE, 2010).

By Kd is commonly meant the concentration at which binding is half-saturated. Read a high Kd as weaker binding. Usually stoichiometry N stands for a count of units in the complex or per binding partner.

The target in this test is T1, yeast eIF3j (Hcr1) (yeast, UniProt Q05775 1-265).
T1 construct: source: E. coli Rosetta2 (DE3), pGEX-6P-1, purified (GSTrap, PreScission cleavage, second glutathione step, Superdex S-75)
T1 sequence (Q05775 whole entry): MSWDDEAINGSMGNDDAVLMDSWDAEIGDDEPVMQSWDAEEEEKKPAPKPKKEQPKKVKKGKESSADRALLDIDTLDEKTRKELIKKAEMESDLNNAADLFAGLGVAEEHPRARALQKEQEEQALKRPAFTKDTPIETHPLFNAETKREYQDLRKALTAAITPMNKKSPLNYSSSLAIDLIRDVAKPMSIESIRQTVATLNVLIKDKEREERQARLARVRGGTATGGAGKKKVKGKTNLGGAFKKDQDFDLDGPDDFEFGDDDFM
The test can be described thus: ITC; VP-ITC; 20 µL aliquots of 229 µM eIF3b-RRM^76–170 injected into the cell with 10 µM Hcr1; 200 mM NaCl, 10 mM Hepes pH 7.5, 5% glycerol; single binding site model. The settings on record: both partners purified. For orientation: In ITC the heat of successive injections is recorded.

B1: yeast eIF3b-RRM, residues 76-170 (domain or fragment, UniProt P06103 76-170, looked up)
chain: DQYIVVNGAPVIPSAKVPVLKKALTSLFSKAGKVVNMEFPIDEATGKTKGFLFVECGSMNDAKKIIKSFHGKRLDLKHRLFLYTMKDVERYNSDD
notes: also called eIF3b-RRM^76–170; RRM^76–170; source: E. coli Rosetta2 (DE3), pGEX-6P-1, purified (GSTrap, PreScission cleavage, Superdex S-75)
Take B1: the Kd worked out at 7.5 ± 0.5 µM, the dH is -9.28 ± 0.217 kcal/mol and the “stoichiometry N” value is about 1.
